This note sets out measurements from patent publication US20240417458A1 (DISC MEDICINE, published 2024).

In assay [1] the target is T1, membrane-bound human RGMc (human, UniProt Q6ZVN8 36-400).
T1 sequence: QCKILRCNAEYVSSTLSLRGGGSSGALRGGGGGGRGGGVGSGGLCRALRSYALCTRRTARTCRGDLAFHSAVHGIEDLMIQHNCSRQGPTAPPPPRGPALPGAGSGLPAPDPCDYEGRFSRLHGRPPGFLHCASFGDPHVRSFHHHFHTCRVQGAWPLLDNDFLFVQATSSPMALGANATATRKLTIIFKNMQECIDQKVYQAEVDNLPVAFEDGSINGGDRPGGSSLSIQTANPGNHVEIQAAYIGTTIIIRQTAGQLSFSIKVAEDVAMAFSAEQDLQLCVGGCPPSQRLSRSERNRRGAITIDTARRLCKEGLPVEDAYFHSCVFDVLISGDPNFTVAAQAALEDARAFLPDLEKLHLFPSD
As to the kind of experiment: cell-based or functional assay.

In assay [2] the target is T2, membrane-bound human RGMa (human, UniProt Q96B86 169-424).
T2 sequence (looked up): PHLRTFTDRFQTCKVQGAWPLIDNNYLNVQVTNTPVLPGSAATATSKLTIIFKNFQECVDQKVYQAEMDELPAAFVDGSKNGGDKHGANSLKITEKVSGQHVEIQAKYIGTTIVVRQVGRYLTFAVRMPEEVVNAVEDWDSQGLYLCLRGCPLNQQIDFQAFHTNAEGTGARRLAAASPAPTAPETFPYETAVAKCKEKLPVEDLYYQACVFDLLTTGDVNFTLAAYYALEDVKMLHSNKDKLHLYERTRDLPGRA
Briefly: cell-based or functional assay.

For assay [3], the target named is T1, membrane-bound human RGMc. As to the kind of experiment: cell-based or functional assay. This is another data set of the same source.
The target in a further assay is T3, FcRn.
T3 construct: also called neonatal Fc receptor
T3 sequence (P55899 24-297, chain 1 of 2): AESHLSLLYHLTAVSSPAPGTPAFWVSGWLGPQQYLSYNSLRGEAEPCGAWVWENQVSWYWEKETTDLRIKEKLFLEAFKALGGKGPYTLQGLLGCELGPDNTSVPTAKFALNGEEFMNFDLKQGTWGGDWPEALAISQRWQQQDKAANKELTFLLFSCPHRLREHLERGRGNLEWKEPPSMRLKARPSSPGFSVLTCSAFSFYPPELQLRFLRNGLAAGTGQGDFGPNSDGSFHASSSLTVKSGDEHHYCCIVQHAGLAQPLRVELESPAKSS
T3 sequence (P61769 21-119, chain 2 of 2, further chain): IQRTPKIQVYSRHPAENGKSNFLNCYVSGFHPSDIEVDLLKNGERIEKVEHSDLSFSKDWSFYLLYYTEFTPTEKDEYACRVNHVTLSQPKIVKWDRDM
Briefly: SPR (BIAcore) at pH 6.0.

In assay [4] the target is T1, membrane-bound human RGMc. As to the kind of experiment: cell-based or functional assay. This is another data set of the same source.
The target of a further assay is T4, soluble human RGMc (human, UniProt Q6ZVN8 36-400).
T4 construct: also called huRGMc; soluble hRGMc
T4 sequence: T1 sequence
Briefly: SPR (BIAcore), RGM antigen in solution. A general note: In SPR one partner is held on a chip, and binding of the other changes the refractive index at the surface.

The target in another assay is T5, Cyno RGMa (cyno, UniProt Q9N0A6 54-433, limits assumed).
T5 sequence (looked up): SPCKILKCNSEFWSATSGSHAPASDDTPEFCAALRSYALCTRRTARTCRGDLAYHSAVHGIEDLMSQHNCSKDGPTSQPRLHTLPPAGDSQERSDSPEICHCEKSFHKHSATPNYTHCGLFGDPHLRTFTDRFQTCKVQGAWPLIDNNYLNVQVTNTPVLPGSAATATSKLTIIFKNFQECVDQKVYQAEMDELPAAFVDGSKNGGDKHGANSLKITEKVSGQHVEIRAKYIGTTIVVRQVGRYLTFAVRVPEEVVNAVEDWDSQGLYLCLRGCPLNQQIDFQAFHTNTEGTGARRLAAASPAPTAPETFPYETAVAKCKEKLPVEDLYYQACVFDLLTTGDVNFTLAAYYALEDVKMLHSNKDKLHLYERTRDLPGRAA
Briefly: SPR (BIAcore), RGM antigen in solution.

In a further assay the target is T6, Cyno RGMc (cyno, UniProt A0A2K5TJX5 36-401).
T6 sequence: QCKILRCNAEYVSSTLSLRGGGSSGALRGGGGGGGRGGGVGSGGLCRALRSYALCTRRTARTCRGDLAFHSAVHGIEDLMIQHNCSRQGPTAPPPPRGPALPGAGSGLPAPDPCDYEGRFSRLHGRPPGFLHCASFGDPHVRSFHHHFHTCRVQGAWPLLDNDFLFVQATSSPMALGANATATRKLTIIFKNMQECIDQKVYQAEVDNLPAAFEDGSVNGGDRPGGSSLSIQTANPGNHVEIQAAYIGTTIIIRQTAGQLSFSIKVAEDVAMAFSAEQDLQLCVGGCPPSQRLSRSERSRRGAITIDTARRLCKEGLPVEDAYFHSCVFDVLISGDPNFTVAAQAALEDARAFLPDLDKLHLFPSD
As to the kind of experiment: SPR (BIAcore), RGM antigen in solution.

Another assay addresses T7, Rat RGMc (rat, UniProt Q8N7M5 36-396, limits assumed).
T7 sequence (looked up): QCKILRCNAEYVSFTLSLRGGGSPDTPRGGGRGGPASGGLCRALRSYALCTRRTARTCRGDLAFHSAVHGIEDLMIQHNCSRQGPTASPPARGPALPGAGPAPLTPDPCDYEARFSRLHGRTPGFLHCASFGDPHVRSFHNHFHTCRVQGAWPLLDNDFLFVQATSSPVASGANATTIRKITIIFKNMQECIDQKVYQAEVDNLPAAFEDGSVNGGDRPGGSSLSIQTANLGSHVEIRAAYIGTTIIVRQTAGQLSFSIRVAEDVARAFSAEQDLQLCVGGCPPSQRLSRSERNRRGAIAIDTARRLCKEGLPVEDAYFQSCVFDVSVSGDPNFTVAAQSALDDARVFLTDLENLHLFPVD
Briefly: SPR (BIAcore), RGM antigen in solution.

Another assay concerns the target T8, Human RGMb (human, UniProt Q6NW40 46-413, limits assumed).
T8 construct: also called repulsive guidance molecule B
T8 sequence (looked up): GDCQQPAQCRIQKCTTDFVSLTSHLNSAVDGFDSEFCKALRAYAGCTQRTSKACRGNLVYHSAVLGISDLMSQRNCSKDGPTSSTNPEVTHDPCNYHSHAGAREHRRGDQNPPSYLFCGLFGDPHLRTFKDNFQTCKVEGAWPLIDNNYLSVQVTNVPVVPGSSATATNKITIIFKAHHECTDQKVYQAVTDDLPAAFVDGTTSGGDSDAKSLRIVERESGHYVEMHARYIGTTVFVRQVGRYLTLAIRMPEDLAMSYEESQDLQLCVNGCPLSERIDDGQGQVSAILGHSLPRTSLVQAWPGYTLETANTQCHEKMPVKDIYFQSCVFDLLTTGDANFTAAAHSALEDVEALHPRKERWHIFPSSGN
As to the kind of experiment: SPR (BIAcore), RGM antigen in solution.

Several values for one entry are separate records, joined by “and”; a condition that tells them apart may be missing. Identical values can stand only once.

B1: hHA-008 (antibody, human IgG1, kappa, L234A L235A)
heavy: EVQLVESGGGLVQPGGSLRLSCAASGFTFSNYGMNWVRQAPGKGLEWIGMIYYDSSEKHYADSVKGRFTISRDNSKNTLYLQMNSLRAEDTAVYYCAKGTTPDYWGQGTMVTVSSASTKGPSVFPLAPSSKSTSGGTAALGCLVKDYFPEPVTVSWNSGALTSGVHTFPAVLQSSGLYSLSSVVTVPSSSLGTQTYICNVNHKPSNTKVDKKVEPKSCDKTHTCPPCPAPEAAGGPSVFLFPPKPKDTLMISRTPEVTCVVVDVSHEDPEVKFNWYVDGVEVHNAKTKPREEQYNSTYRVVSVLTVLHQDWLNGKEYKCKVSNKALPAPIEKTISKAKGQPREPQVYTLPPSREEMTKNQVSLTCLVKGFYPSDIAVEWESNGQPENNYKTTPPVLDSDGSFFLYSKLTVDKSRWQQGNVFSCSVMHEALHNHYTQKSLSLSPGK
light: DVVLTQSPLSLPVTLGQPASISCRSSQSLEESDGYTFLHWFQQRPGQSPRLLIYEVSTRFSGVPDRFSGSGSGTDFTLKISRVEAEDVGVYYCFQATHDPLTFGQGTKLEIKRTVAAPSVFIFPPSDEQLKSGTASVVCLLNNFYPREAKVQWKVDNALQSGNSQESVTEQDSKDSTYSLSSTLTLSKADYEKHKVYACEVTHQGLSSPVTKSFNRGEC
notes: hIgG1 L234A, L235A, kappa; also called hHA-008 (hIgG1mut(LALA)/k)
For orientation: Kd means a measure of binding affinity in units of concentration. The koff is the rate constant with which the complex falls apart. Lower therefore signals slow dissociation. The term kon denotes a measure of how fast the partners come together. A lower kon goes with slow association. Take B1: the “IC50 (nM), BMP reporter assay for RGMc (BRE-Luc, HEK293)” value in assay [1] was determined as 0.377 nM. Besides, the “IC50 (nM), BMP reporter assay for RGMa” value in [2] was about 56.5 nM. In assay [3], the “Potency on membrane hRGMc (RGMc/BMP reporter assay), IC50” value amounted to 0.37 nM. The equilibrium dissociation constant (Kd) was 2950 nM and 2960 nM with FcRn; 0.12 nM with soluble human RGMc; 0.64 nM with Cyno RGMa; 0.12 nM with Cyno RGMc; 0.23 nM with Rat RGMc. The “IC50 (read off the curve)” value in assay [4] was about 0.4 nM. Besides, the koff stood at 0.00029 s⁻¹ in the assay with soluble human RGMc, 0.00035 s⁻¹ with Cyno RGMa, 0.00031 s⁻¹ with Cyno RGMc and 0.00032 s⁻¹ with Rat RGMc. In addition, the kon with soluble human RGMc was 2.5e+06 M⁻¹ s⁻¹; with Cyno RGMa, 550000 M⁻¹ s⁻¹; in the assay with Cyno RGMc it was 2.6e+06 M⁻¹ s⁻¹; with Rat RGMc, 1.4e+06 M⁻¹ s⁻¹. Also, in the assay with Human RGMb, the binding result is “no binding”.
